Measurements: US10544215B2, “1-(Chloromethyl)-2,3-dihydro-1H-benzo[e]indole dimer antibody-drug conjugate compounds, and methods of use and treatment” (priority 2013, dated 2020)

B1: ADC 125: Thio Hu Anti-CD33 15G15.33 HC A118C-MC-MMED-(CBI dimer phos); linker-CBI intermediate 57 (conjugate)
VH: QVQLVQSGAEVKKPGSSVKVSCKASGGIFSNHAISWVRQAPGQGLEWMGGIIPIFGTANYAQKFQGRVTITADESTSTAFMELSSLRSEDTAVYYCAREWADVFDIWGQGTMVTVSS
VL: EIVLTQSPLSLPVTPGEPASISCRSSQSLLHSNGYNYLDWYLQKPGQSPQLLIYLGVNSVSGVPDRFSGSGSGTDFTLKISRVEAEDVGVYYCMQALQTPWTFGQGTKVEIK
B2: ADC 127: Thio Hu Anti-CD33 15G15.33 HC A118C-MC-ED-(CBI dimer DVB diphos); linker-CBI intermediate 66 (conjugate)
VH: B1 VH
VL: B1 VL
B3: ADC 129: Thio Hu Anti-CD33 15G15.33 HC A118C-MC-ED-(CBI dimer DVB phos); linker-CBI intermediate 68 (conjugate)
VH: B1 VH
VL: B1 VL

System: EOL-1
Assay: EOL-1 in vitro cell viability (CellTiter-Glo cell proliferation assay)
Assay type: cell-based, human
Conditions: at 3 days versus ADC concentrations (μg/ml)
Excerpt: The CellTiter-Glo® Luminescent Cell Viability Assay is a commercially available (Promega Corp., Madison, Wis.), homogeneous assay method based on the recombinant expression of Coleoptera luciferase (U.S. Pat. Nos. 5,583,024; 5,674,713; 5,700,670). This cell proliferation assay determines the number of viable cells in culture based on quantitation of the ATP present, an indicator of metabolically active cells (Crouch et al (1993) J. Immunol. Meth. 160:81-88; U.S. Pat. No. 6,602,677). The CellTiter-Glo® Assay was conducted in 96 well format, making it amenable to automated high-throughput screening (HTS) (Cree et al (1995) AntiCancer Drugs 6:398-404). The homogeneous assay procedure involves adding the single reagent (CellTiter-Glo® Reagent) directly to cells cultured in serum-supplemented medium. Cell washing, removal of medium and multiple pipetting steps are not required. The system detects as few as 15 cells/well in a 384-well format in 10 minutes after adding reagent and mixing. The cells may be treated continuously with ADC, or they may be treated and separated from ADC.
The homogeneous “add-mix-measure” format results in cell lysis and generation of a luminescent signal proportional to the amount of ATP present. The amount of ATP is directly proportional to the number of cells present in culture. […] Viable cells are reflected in relative luminescence units (RLU). […]
Efficacy of ADC was measured by a cell proliferation assay employing the following protocol ([…] GLO™ Luminescent Cell Viability Assay, Promega Corp. Technical Bulletin TB288; Mendoza et al (2002) Cancer Res. 62:5485-5488): • 1. […] The plate was incubated at room temperature for 10 minutes to stabilize the luminescence signal. • 8. Luminescence was recorded and reported in graphs as RLU=relative luminescence units. • Data are plotted as the mean of luminescence for each set of replicates, with standard deviation error bars. […]

Molecule	cell-killing activity (EOL-1 in vitro cell viability)
B1	modest dose response cell-killing activity
B2	potent, dose responsive cell-killing activity
B3	potent, dose responsive cell-killing activity
